Test results reported in PMC6949295 (2020).
One block for each substance: values may come before it.

Columns and labels:
Assay in all cases: co-immunoprecipitation (IP: HA, blot: Flag)
Details in all cases: 293T cells; parent: 1.00
HA-Exo70(S59D) = target: HA-Exo70(S59D)
HA-Exo70(S47D) = target: HA-Exo70(S47D)
HA-Exo70(S47D/S59D) = target: HA-Exo70(S47D/S59D)

response (relative band intensity) (HA-Exo70(S59D)): 1
Substance: Exo70 wild type, HA-tagged and Flag-tagged copies co-expressed (from UniProt O54922) S59D

response (relative band intensity) (HA-Exo70(S47D)): 1
Substance: Exo70 wild type, HA-tagged and Flag-tagged copies co-expressed (from UniProt O54922) S47D

response (relative band intensity) (HA-Exo70(S47D/S59D)): 0.96
Substance: Exo70 wild type, HA-tagged and Flag-tagged copies co-expressed (from UniProt O54922) S47D; S59D
